Reference: publication PMC4571279 (Nature Communications, 2015)

Key:
[1] = target: T1, MERS-CoV Eng1 receptor-binding domain (RBD) (MERS-CoV Eng1, UniProt K9N5Q8); test: crystal structure; settings: both partners purified
T1 construct: source: GnTi-/- cells, purified (Ni-NTA, size exclusion chromatography in 1x PBS)

[2] = target: T2, recombinant MERS-CoV S1 protein (MERS-CoV, isolate EMC/2012 (strain of …, UniProt K0BRG7)); test: ELISA; settings: both partners purified
T2 construct: source: bought: Sino Biological Inc

T1 sequence (K9N5Q8 367-601): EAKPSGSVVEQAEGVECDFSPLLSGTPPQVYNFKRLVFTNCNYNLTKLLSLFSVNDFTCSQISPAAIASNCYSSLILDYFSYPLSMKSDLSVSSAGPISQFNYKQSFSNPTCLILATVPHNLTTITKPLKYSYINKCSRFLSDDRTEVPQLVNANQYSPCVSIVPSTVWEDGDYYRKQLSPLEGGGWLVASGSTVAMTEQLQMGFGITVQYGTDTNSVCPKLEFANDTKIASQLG

Row | Binder | binding result [1] | binding result [2]
1 | Fab m336 (antigen-binding fragment of antibody m336, prepared by Lys-C digestion) (Fab, V domains shown, also called m336 Fab) VH: QVQLVQSGAEVKKPGSSVKVSCKASGGTFSSYAISWVRQAPGQGLEWMGGIIPIFGTASYAQKFQGRVTITADKSTSTAYMELSSLRSEDTAVYYCARVGYCSSTSCNRGAFDIWGQGTMVTVSS VL: DIQLTQSPSSLSASVGDRVTITCRASQGIRNDLGWYQQKPGKAPKLLIYAASSLQSGVPSRFSGSGSGTDFTLTISSLQPEDFATYYCQQLNSYPLTFGGGTKVEIK | binds | –
2 | Fab m336 (from the m336 Fab-expressing plasmid), wild type (Fab, V domains shown, also called wild-type m336) VH: QVQLVQSGAEVKKPGSSVKVSCKASGGTFSSYAISWVRQAPGQGLEWMGGIIPIFGTASYAQKFQGRVTITADKSTSTAYMELSSLRSEDTAVYYCARVGYCSSTSCNRGAFDIWGQGTMVTVSS VL: DIQLTQSPSSLSASVGDRVTITCRASQGIRNDLGWYQQKPGKAPKLLIYAASSLQSGVPSRFSGSGSGTDFTLTISSLQPEDFATYYCQQLNSYPLTFGGGTKVEIK | – | binds
3 | IgG1 m336 (antibody, V domains shown, IgG1; also called wild-type m336; copies: 2 + 2) VH: QVQLVQSGAEVKKPGSSVKVSCKASGGTFSSYAISWVRQAPGQGLEWMGGIIPIFGTASYAQKFQGRVTITADKSTSTAYMELSSLRSEDTAVYYCARVGYCSSTSCNRGAFDIWGQGTMVTVSS VL: DIQLTQSPSSLSASVGDRVTITCRASQGIRNDLGWYQQKPGKAPKLLIYAASSLQSGVPSRFSGSGSGTDFTLTISSLQPEDFATYYCQQLNSYPLTFGGGTKVEIK | – | binds
